Results from patent publication US5723299, “Somatostatin receptors” (Arch Development Corporation, dated 1998).
No end group written: not given here.

T1: mouse somatostatin receptor SSTR2 (mouse)
T1 chain: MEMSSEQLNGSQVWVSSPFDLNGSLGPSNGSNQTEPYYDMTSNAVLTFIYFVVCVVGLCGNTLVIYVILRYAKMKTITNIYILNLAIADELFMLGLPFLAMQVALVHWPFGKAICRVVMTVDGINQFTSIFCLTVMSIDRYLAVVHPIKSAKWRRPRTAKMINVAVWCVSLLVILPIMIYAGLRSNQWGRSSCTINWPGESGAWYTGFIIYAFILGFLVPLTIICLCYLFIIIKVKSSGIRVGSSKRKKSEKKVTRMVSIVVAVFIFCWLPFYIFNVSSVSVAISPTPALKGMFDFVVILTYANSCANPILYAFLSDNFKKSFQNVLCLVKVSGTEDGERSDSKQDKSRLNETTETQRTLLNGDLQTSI


Assays:
[1] = molecular target: T1, mouse somatostatin receptor SSTR2; assay: competition of [125I]iodo-Tyr11-somatostatin-14 binding to CHO cells transfected with mouse SSTR2
Text: At 1.5 PstI/XmnI fragment of the human SSTR1 gene and a 1.2 kb XbaI fragment of the mouse SSTR2 gene were inserted into the mammalian expression vectors pCMV6b and 6c, respectively (a gift of Dr. B. Chapman, Chiron Corp., Emeryville, Calif.). The resulting constructs were co-transfected with pSV2neo into the dihydrofolate reductase-deficient Chinese hamster ovary (CHO) cell line, DG44, using Lipofectin Reagent (GIBCO BRL, Gaithersburg, Md.). Stable transfectants were selected and maintained in α-MEM (GIBCO BRL) containing 400 vg/ml G418. Each cell line was grown to confluency in 6-well, 35-mm diameter plates at 37° C. The cells were washed with buffer containing 10 mM HEPES, 5 mM KH_2PO_4, 5 mM MgCl_2, 150 mM NaCl, and 1% (wt./vol.) bovine serum albumin (all at pH 7.4), and were stabilized in the same buffer for 30 min at 22° C. […] Incubated cells were washed twice with 2-ml portions of ice-cold buffer and were dissolved in 1 ml of 8M urea in 3M acetic acid. The suspended cells were transferred to a tube, the well was washed with 1 ml of the same solution, and the combined extracts were measured for radioactivity by use of a gamma-counter.

[2] = molecular target: human somatostatin receptor SSTR1 (human); assay: competition of [125I]iodo-Tyr11-somatostatin-14 binding to CHO cells stably expressing human SSTR1
Chain of human somatostatin receptor SSTR1 (human) (chain, as listed by the source): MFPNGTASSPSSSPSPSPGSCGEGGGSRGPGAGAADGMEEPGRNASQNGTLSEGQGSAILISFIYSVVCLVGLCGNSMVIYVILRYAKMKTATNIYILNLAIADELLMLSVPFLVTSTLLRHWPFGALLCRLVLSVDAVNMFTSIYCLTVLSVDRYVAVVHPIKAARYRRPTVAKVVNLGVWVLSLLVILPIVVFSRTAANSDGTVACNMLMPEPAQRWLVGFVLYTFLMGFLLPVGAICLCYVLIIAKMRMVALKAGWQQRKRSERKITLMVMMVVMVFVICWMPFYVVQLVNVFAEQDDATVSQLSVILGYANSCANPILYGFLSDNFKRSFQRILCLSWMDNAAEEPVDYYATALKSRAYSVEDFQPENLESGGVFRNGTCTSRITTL
Experimental: The resulting constructs were co-transfected with pSV2neo into the dihydrofolate reductase-deficient Chinese hamster ovary (CHO) cell line, DG44, using Lipofectin Reagent (GIBCO BRL, Gaithersburg, Md.). Stable transfectants were selected and maintained in α-MEM (GIBCO BRL) containing 400 vg/ml G418. Each cell line was grown to confluency in 6-well, 35-mm diameter plates at 37° C. The cells were washed with buffer containing 10 mM HEPES, 5 mM KH_2PO_4, 5 mM MgCl_2, 150 mM NaCl, and 1% (wt./vol.) bovine serum albumin (all at pH 7.4), and were stabilized in the same buffer for 30 min at 22° C. […] Incubated cells were washed twice with 2-ml portions of ice-cold buffer and were dissolved in 1 ml of 8M urea in 3M acetic acid. The suspended cells were transferred to a tube, the well was washed with 1 ml of the same solution, and the combined extracts were measured for radioactivity by use of a gamma-counter.
The pharmacological characteristics of SSTR1 were examined in CHO cells that were stably expressing this receptor.

| Binder | IC50 [1] [nM] | IC50 [2] [nM] |
| --- | --- | --- |
| AGCKNFFWKTFTSC (not fully specified (bridges); cysteine pairing not given here) [somatostatin-14] | 1.6 |  |
| SANSNPAMAPRERKAGCKNFFWKTFTSC [somatostatin-28] |  | 4.7 |
